7 molecules from patent US20250084372A1, “IN VITRO DERIVATION OF GONADAL SOMATIC CELLS” (Conception Bisosciences, Inc., priority 2020, published 2025) can be followed below.

Holding throughout (type): cell-based, human
Test [1] has as its system ovarian somatic cells (OSCs). Nature of the test: OSC induction with different BMP isoforms, marker qPCR. The conditions noted are these: 20 ng/mL BMP in granulosa double medium. On the procedure:
Gonadal somatic cells were induced in granulosa double medium comprising different BMP isoforms, and the expression of bipotential gonadal markers as well as that of granulosa markers were measured in the resulting cells.
The expression of bipotential gonadal markers (WT1, LHX9, GADD45G and GATA4) as well as granulosa markers (FOXL2, NR1H4 and KITLG) were measured by qPCR in the resulting cells.

In test [2] the test system is ovarian somatic cells (OSCs). Nature of the test: Concentration titration of BMP4, follistatin and FGF2 in OSC induction, qPCR for GATA4 and FOXL2. On the procedure:
Various concentration titrations of BMP4, Follistatin and FGF were tested in OSC induction, and the resulting cells were examined for expression of bipotential gonadal markers as well as that of granulosa markers.
The OSCs were induced based on the protocols described in Example 6, but with various concentrations of BMP4. Follistatin and FGF tested.
The OSC induction conditions were first tested by varying the BMP4 concentration. […] The gene expression of resulting cells was tested by qPCR for bi-potential gonadal cell markers (GATA4) as well as for granulosa cell markers (FOXL2) (FIGS. 12A and 12B respectively). Expression of GATA4 increased with higher BMP4 concentration, and FOXL2 expression appeared to peak at 10 ng/ml of BMP4 under the conditions tested.
Four different concentrations of follistatin were then tested in OSC induction, with the concentration of BMP4 kept constant at 20 ng/ml as previously described. The gene expression of resulting cells was tested by qPCR for bi-potential gonadal cell markers (GATA4) as well as for granulosa cell markers (FOXL2) (FIGS. 12C and 12D respectively). […] The generation of mature OSCs were also examined by FOXL2 expression. […] In subsequent experiments, OSC induction in the absence or at lower concentrations of follistatin was further explored.
Five different concentrations of FGF2 were then tested in OSC induction, with the concentration of BMP4 kept constant at 20 ng/mL and follistatin removed (Ong/mL). The gene expression of resulting cells were tested by qPCR for bi-potential gonadal cells (GATA4) as well as for granulosa cells (FOXL2) (FIGS. 12E and 12F respectively). As shown by FIGS. 12E and 12F, both GATA4 expression and FOXL2 expression reached saturation at 20 ng/ml of FGF2.

Test [3] concerns ovarian somatic cells (OSCs). As to the kind of experiment: OSC induction with different FGF family members, marker expression. As to conditions: 10 ng/mL FGF in granulosa double medium. How it is done: Fibroblast growth factors (FGFs) are a large family of proteins that are important for signaling events in a wide variety of processes. […] Briefly, gonadal cells were induced in granulosa doublemedium comprising different FGFs, and the expression of bipotential gonadal markers as well as that of granulosa markers were measured in the resulting cells.
The replated cells from the second intermediate population were incubated in the granulosa double medium (also referred to as gonadal induction medium or OSC induction medium) according to Table 18, with the same concentration of either FGF2, 9, 10, 16, 17, 18 or 19. The expression of bipotential gonadal markers (WT1, LHX9, GADD45G and GATA4) as well as granulosa markers (FOXL2, NR1H4 and KITLG) were measured in the resulting cells.

B1: BMP15: BMP isoform in gonadal induction medium (protein, UniProt O95972 268-392, looked up)
Bone morphogenetic protein 15: QADGISAEVTASSSKHSGPENNQCSLHPFQISFRQLGWDHWIIAPPFYTPNYCKGTCLRVLRDGLNSPNHAIIQNLINQLVDQSVPRPSCVPYKYVPISVLMIEANGSILYKEYEGMIAESCTCR
B1: in test [1], the “expression of bipotential gonadal markers (WT1, LHX9, GADD45G, GATA4) compared to BMP4” value is “comparable or higher” and the “expression of granulosa markers (FOXL2, NR1H4, KITLG) compared to BMP4” value is on record as “comparable or higher”.

B2: BMP7: BMP isoform in gonadal induction medium (protein, UniProt P18075 293-431, looked up)
Bone morphogenetic protein 7: STGSKQRSQNRSKTPKNQEALRMANVAENSSSDQRQACKKHELYVSFRDLGWQDWIIAPEGYAAYYCEGECAFPLNSYMNATNHAIVQTLVHFINPETVPKPCCAPTQLNAISVLYFDDSSNVILKKYRNMVVRACGCH
With B2, in test [1], the “expression of bipotential gonadal markers (WT1, LHX9, GADD45G, GATA4) compared to BMP4” value is on record as “comparable or higher” and the “expression of granulosa markers (FOXL2, NR1H4, KITLG) compared to BMP4” value was “comparable or higher”.

B3: follistatin: protein component of gonadal induction medium (protein, UniProt P19883 30-344, looked up)
Follistatin: GNCWLRQAKNGRCQVLYKTELSKEECCSTGRLSTSWTEEDVNDNTLFKWMIFNGGAPNCIPCKETCENVDCGPGKKCRMNKKNKPRCVCAPDCSNITWKGPVCGLDGKTYRNECALLKARCKEQPELEVQYQGRCKKTCRDVFCPGSSTCVVDQTNNAYCVTCNRICPEPASSEQYLCGNDGVTYSSACHLRKATCLLGRSIGLAYEGKCIKAKSCEDIQCTGGKKCLWDFKVGRGRCSLCDELCPDSKSDEPVCASDNATYASECAMKEAACSSGVLLEVKHSGSCNSISEDTEEEEEDEDQDYSFPISSILEW
In the case of B3, the “GATA4 expression on removing follistatin altogether” value in test [2] (0 ng/mL follistatin, BMP4 20 ng/ml) is given as “increase”. The FOXL2 expression entry was “marginal increase” in test [2] (25 ng/ml follistatin, no further increase at higher concentrations) and “marginal increase” in test [2] (higher concentrations of follistatin, BMP4 20 ng/ml).

B4: FGF17: fibroblast growth factor family member (protein, UniProt O60258 23-216, looked up)
Fibroblast growth factor 17: TQGENHPSPNFNQYVRDQGAMTDQLSRRQIREYQLYSRTSGKHVQVTGRRISATAEDGNKFAKLIVETDTFGSRVRIKGAESEKYICMNKRGKLIGKPSGKSKDCVFTEIVLENNYTAFQNARHEGWFMAFTRQGRPRQASRSRQNQREAHFIKRLYQGQLPFPNHAEKQKQFEFVGSAPTRRTKRTRRPQPLT
Regarding B4, in test [3], the “expression of bipotential gonadal markers (WT1, LHX9, GADD45G, GATA4) compared to FGF2” value (“expression … compared to FGF2” below) is given as “comparable or higher” and the “expression of granulosa markers (FOXL2, NR1H4, KITLG) compared to corresponding medium” value (shortened to “expression … compared to corresponding medium”) is listed as “comparable”.

B5: FGF10: fibroblast growth factor family member (protein, UniProt O15520 38-208, looked up)
Fibroblast growth factor 10: QALGQDMVSPEATNSSSSSFSSPSSAGRHVRSYNHLQGDVRWRKLFSFTKYFLKIEKNGKVSGTKKENCPYSILEITSVEIGVVAVKAINSNYYLAMNKKGKLYGSKEFNNDCKLKERIEENGYNTYASFNWQHNGRQMYVALNGKGAPRRGQKTRRKNTSAHFLPMVVHS
Turning to B5, in test [3], the “expression … compared to FGF2” value is “comparable or higher” and the “expression … compared to corresponding medium” value was “comparable”.

B6: BMP4: BMP isoform in gonadal induction medium (protein, UniProt P12644 293-408, looked up)
Bone morphogenetic protein 4: SPKHHSQRARKKNKNCRRHSLYVDFSDVGWNDWIVAPPGYQAFYCHGDCPFPLADHLNSTNHAIVQTLVNSVNSSIPKACCVPTELSAISMLYLDEYDKVVLKNYQEMVVEGCGCR
For the molecule B6, in test [2] (OSC induction), the “BMP4 concentration at which FOXL2 expression peaks” value turned out to be 10 ng/mL and the “concentration at which the BMP4 effect saturates for OSCs” value worked out at 20 ng/mL. Further, the “expression of GATA4” value in test [2] (higher BMP4 concentration) was “increased”.

B7: FGF18: fibroblast growth factor family member (protein, UniProt O76093 28-207, looked up)
Fibroblast growth factor 18: EENVDFRIHVENQTRARDDVSRKQLRLYQLYSRTSGKHIQVLGRRISARGEDGDKYAQLLVETDTFGSQVRIKGKETEFYLCMNRKGKLVGKPDGTSKECVFIEKVLENNYTALMSAKYSGWYVGFTKKGRPRKGPKTRENQQDVHFMKRYPKGQPELQKPFKYTTVTKRSRRIRPTHPA
With B7, in test [3], the “expression … compared to FGF2” value was “comparable or higher” and the “expression … compared to corresponding medium” value was “comparable”.
